Reference: the supplement of paper PMC11246515
± gives the standard deviation of the averaged measurements.

Assay: total protein half-life in vivo (active degradation + dilution); higher = more stable protein
[1] = E. coli NCM3722 delta-clpP delta-lon delta-hslV, growth: N-lim chemostat, doubling time 6 h
[2] = E. coli NCM3722 delta-clpP, growth: N-lim chemostat, doubling time 6 h
[3] = E. coli NCM3722 delta-hslV, growth: N-lim chemostat, doubling time 6 h
[4] = E. coli NCM3722 delta-lon, growth: N-lim chemostat, doubling time 6 h
[5] = E. coli NCM3722 delta-smpB, growth: N-lim chemostat, doubling time 6 h
[6] = wild type E. coli NCM3722, growth: C-lim chemostat, doubling time 3 h
[7] = wild type E. coli NCM3722, growth: C-lim chemostat, doubling time 6 h
[8] = wild type E. coli NCM3722, growth: C-lim chemostat, doubling time 12 h
[9] = wild type E. coli NCM3722, growth: N-lim chemostat, doubling time 6 h
[10] = wild type E. coli NCM3722, growth: N-lim chemostat, doubling time 12 h
[11] = wild type E. coli NCM3722, growth: P-lim chemostat, doubling time 6 h
[12] = wild type E. coli NCM3722, growth: P-lim chemostat, doubling time 12 h

Sequence | total protein half-life in vivo [1] [h] | total protein half-life in vivo [2] [h] | total protein half-life in vivo [3] [h] | total protein half-life in vivo [4] [h] | total protein half-life in vivo [5] [h] | total protein half-life in vivo [6] [h] | total protein half-life in vivo [7] [h] | total protein half-life in vivo [8] [h] | total protein half-life in vivo [9] [h] | total protein half-life in vivo [10] [h] | total protein half-life in vivo [11] [h] | total protein half-life in vivo [12] [h]
MESLTLQPIARVDGTINLPGSKSVSNRALLLAALAHGKTVLTNLLDSDDVRHMLNALTALGVSYTLSADRTRCEIIGNGGPLHAEGALELFLGNAGTAMRPLAAALCLGSNDIVLTGEPRMKERPIGHLVDALRLGGAKITYLEQENYPPLRLQGGFTGGNVDVDGSVSSQFLTALLMTAPLAPEDTVIRIKGDLVSKPYIDITLNLMKTFGVEIENQHYQQFVVKGGQSYQSPGTYLVEGDASSASYFLAAAAIKGGTVKVTGIGRNSMQGDIRFADVLEKMGATICWGDDYISCTRGELNAIDMDMNHIPDAAMTIATAALFAKGTTTLRNIYNWRVKETDRLFAMATELRKVGAEVEEGHDYIRITPPEKLNFAEIATYNDHRMAMCFSLVALSDTPVTILDPKCTAKTFPDYFEQLARISQAA [P0A6D3] | 5.15 ± 0.18 | 5.52 ± 1.1 | 4.53 ± 0.15 | 5.22 ± 0.56 | 4.53 ± 0.049 | 3.1 ± 0.1 | 5.96 ± 0.62 | 11.3 ± 0.63 | 4.45 ± 0.31 | 7.534 ± 0.05 | 5.98 ± 0.078 | 12.1 ± 1.5
METRREERIGQLLQELKRSDKLHLKDAAALLGVSEMTIRRDLNNHSAPVVLLGGYIVLEPRSASHYLLSDQKSRLVEEKRRAAKLAATLVEPDQTLFFDCGTTTPWIIEAIDNEIPFTAVCYSLNTFLALKEKPHCRAFLCGGEFHASNAIFKPIDFQQTLNNFCPDIAFYSAAGVHVSKGATCFNLEELPVKHWAMSMAQKHVLVVDHSKFGKVRPARMGDLKRFDIVVSDCCPEDEYVKYAQTQRIKLMY [P0ACK5] | 6.81 ± 0.62 | 6.08 ± 0.73 | 6.59 ± 0.9 | 6.9 ± 1.5 | 5.02 ± 0.12 | 2.74 | 6.23 ± 0.15 | 9.99 ± 0.58 | 5.81 ± 0.078 | 10.57 ± 0.023 | 5.99 ± 0.49 | –
METTQTSTIASKDSRSAWRKTDTMWMLGLYGTAIGAGVLFLPINAGVGGMIPLIIMAILAFPMTFFAHRGLTRFVLSGKNPGEDITEVVEEHFGIGAGKLITLLYFFAIYPILLVYSVAITNTVESFMSHQLGMTPPPRAILSLILIVGMMTIVRFGEQMIVKAMSILVFPFVGVLMLLALYLIPQWNGAALETLSLDTASATGNGLWMTLWLAIPVMVFSFNHSPIISSFAVAKREEYGDMAEQKCSKILAFAHIMMVLTVMFFVFSCVLSLTPADLAAAKEQNISILSYLANHFNAPVIAWMAPIIAIIAITKSFLGHYLGAREGFNGMVIKSLRGKGKSIEINKLNRITALFMLVTTWIVATLNPSILGMIETLGGPIIAMILFLMPMYAIQKVPAMRKYSGHISNVFVVVMGLIAISAIFYSLFS [P0AAD6] | – | – | 0.951 | – | – | 1.85 | 5.62 ± 2.4 | 2.71 | – | – | 1.58 | 3.86 ± 0.51
METVFDALKAMGKATSIELAARLDISREEVLNELWELKKAGFVDKSAYTWRVADNNVQQEQPAQAELPEEITTATVAKISECDLTATIEQRGPQTADELATLFGTTSRKVASTLAMAISKGRLIRVNQGGKFRYCIPGDNLPAEPKAASVSPLWLSASSSACHGVLIITVITPSPTKNSATKMPEN | 5.08 ± 0.26 | – | – | – | 1.14 | 1.42 | – | – | – | – | – | –
MEYFDMRKMSVNLWRNAAGETREICTFPPAKRDFYWRASIASIAANGEFSLFPGMERIVTLLEGGEMLLESADRFNHTLKPFQPFAFAADQVVKAKLTAGQMSMDFNIMTRLDVCKAKVRIAERTFTTFGSRGGVVFVINGAWQLGDKLLTTDQGACWFDGRHTLRLLQPQGKLLFSEINWLAGHSPDQVQ | – | – | – | – | – | 0.307 | – | – | – | – | – | –
MEYKDPMHELLSSLEQIVFKDETQKITLTHRTTSCTEIEQLRKGTGLKIDDFARVLGVSVAMVKEWESRRVKPSSAELKLMRLIQANPALSKQLME [P0A9V5] | – | 0.508 ± 0.1 | – | 0.337 | 0.409 | – | – | – | 0.277 | – | – | –
MFAEYGVLNYWTYLVGAIFIVLVPGPNTLFVLKNSVSSGMKGGYLAACGVFIGDAVLMFLAWAGVATLIKTTPILFNIVRYLGAFYLLYLGSKILYATLKGKNSEAKSDEPQYGAIFKRALILSLTNPKAILFYVSFFVQFIDVNAPHTGISFFILAATLELVSFCYLSFLIISGAFVTQYIRTKKKLAKVGNSLIGLMFVGFAARLATLQS | – | – | 4.19 ± 0.057 | 5.03 ± 0.45 | – | > 4 | – | – | – | 8.29 | – | –
MFALCDVNAFYASCETVFRPDLWGKPVVVLSNNDGCVIARNAEAKALGVKMGDPWFKQKDLFRRCGVVCFSSNYELYADMSNRVMSTLEELSPRVEIYSIDEAFCDLTGVRNCRDLTDFGREIRATVLQRTHLTVGVGIAQTKTLAKLANHAAKKWQRQTGGVVDLSNLERQRKLMSALPVDDVWGIGRRISKKLDAMGIKTVLDLADTDIRFIRKHFNVVLERTVRELRGEPCLQLEEFAPTKQEIICSRSFGERITDYPSMRQAICSYAARAAEKLRSEHQYCRFISTFIKTSPFALNEPYYGNSASVKLLTPTQDSRDIINAATRSLDAIWQAGHRYQKAGVMLGDFFSQGVAQLNLFDDNAPRPGSEQLMTVMDTLNAKEGRGTLYFAGQGIQQQWQMKRAMLSPRYTTRSSDLLRVK | 5.93 | – | – | – | – | – | – | – | – | – | – | –
MFDFASYHRAATLADAINLLADNPQAKLLAGGTDVLIQLHHHNDRYRHIVDIHNLAELRGITLAEDGSLRIGSATTFTQLIEDPITQRHLPALCAAATSIAGPQIRNVATYGGNICNGATSADSATPTLIYDAKLEIHSPRGVRFVPINGFHTGPGKVSLEHDEILVAFHFPPQPKEHAGSAHFKYAMRDAMDISTIGCAAHCRLDNGNFSELRLAFGVAAPTPIRCQHAEQTAQNAPLNLQTLEAISESVLQDVAPRSSWRASKEFRLHLIQTMTKKVISEAVAAAGGKLQ | 4.54 ± 1.2 | 2.5 ± 0.1 | 3.19 | 3.61 ± 0.29 | 2.379 ± 0.0096 | 2.25 ± 0.11 | 4.84 ± 0.91 | 6.07 ± 0.36 | 2.52 ± 0.089 | 4 | 4.56 ± 0.36 | 9.6 ± 1.6
